Experimental data published in article PMC11476435, “Functional Relationships between L1CAM, LC3, ATG12, and Aβ” (International Journal of Molecular Sciences, 2024).

B1: mouse L1-LIR peptide containing the extracellular LC3-interacting region (LIR) motif of L1 (peptide)
peptide: SHNGVLTGYLLSYHPVEGESKEQ
notes: 23-amino-acid peptide of mouse L1 with the LIR motif 952LSYHPV957 of the fourth fibronectin type III homologous repeat; source: synthetic peptide, bought: Schafer-N
B2: recombinant human ATG12 (autophagy-related protein 12) (natural protein, UniProt O94817 1-140, looked up)
chain: MAEEPQSVLQLPTSIAAGGEGLTDVSPETTTPEPPSSAAVSPGTEEPAGDTKKKIDILLKAVGDTPIMKTKKWAVERTRTIQGLIDFIKKFLKLVASEQLFIYVNQSFAPSPDQEVGTLYECFGSDGKLVLHYCKSQAWG
notes: source: bought: BIOZOL

Assays:
Conditions in all cases: both partners purified
[1] = target: recombinant human LC3B (microtubule-associated protein 1 light-chain 3) (human, UniProt Q9GZQ8 1-120); experiment: ELISA; competition: recombinant LC3B, ATG12 or Aβ1-42 coated; L1Fc in solution alone or with a 20-fold molar excess of Aβ, L1-LIR peptide or mutated LIR peptide as competitor, 1 h at room temperature; detected with HRP-coupled anti-Fc antibody
[2] = target: B2; experiment: as above
[3] = target: T1, L1Fc, extracellular domain of mouse L1 fused to Fc from human IgG (mouse, UniProt P11627 35-1112); experiment: ELISA; recombinant human ATG12 (10 µg/mL) coated on 384-well plates; different concentrations (1–200 µg/mL) of L1Fc or CHL1Fc in solution, 1 h at room temperature; detected with HRP-coupled anti-Fc antibody
T1 construct: The methods say that the Fc fusion presents dimers, not monomeric domains; also called extracellular domain of L1; soluble L1Fc chimera; source: recombinant, production and purification described in [111]
T1 sequence (P11627 35-1112): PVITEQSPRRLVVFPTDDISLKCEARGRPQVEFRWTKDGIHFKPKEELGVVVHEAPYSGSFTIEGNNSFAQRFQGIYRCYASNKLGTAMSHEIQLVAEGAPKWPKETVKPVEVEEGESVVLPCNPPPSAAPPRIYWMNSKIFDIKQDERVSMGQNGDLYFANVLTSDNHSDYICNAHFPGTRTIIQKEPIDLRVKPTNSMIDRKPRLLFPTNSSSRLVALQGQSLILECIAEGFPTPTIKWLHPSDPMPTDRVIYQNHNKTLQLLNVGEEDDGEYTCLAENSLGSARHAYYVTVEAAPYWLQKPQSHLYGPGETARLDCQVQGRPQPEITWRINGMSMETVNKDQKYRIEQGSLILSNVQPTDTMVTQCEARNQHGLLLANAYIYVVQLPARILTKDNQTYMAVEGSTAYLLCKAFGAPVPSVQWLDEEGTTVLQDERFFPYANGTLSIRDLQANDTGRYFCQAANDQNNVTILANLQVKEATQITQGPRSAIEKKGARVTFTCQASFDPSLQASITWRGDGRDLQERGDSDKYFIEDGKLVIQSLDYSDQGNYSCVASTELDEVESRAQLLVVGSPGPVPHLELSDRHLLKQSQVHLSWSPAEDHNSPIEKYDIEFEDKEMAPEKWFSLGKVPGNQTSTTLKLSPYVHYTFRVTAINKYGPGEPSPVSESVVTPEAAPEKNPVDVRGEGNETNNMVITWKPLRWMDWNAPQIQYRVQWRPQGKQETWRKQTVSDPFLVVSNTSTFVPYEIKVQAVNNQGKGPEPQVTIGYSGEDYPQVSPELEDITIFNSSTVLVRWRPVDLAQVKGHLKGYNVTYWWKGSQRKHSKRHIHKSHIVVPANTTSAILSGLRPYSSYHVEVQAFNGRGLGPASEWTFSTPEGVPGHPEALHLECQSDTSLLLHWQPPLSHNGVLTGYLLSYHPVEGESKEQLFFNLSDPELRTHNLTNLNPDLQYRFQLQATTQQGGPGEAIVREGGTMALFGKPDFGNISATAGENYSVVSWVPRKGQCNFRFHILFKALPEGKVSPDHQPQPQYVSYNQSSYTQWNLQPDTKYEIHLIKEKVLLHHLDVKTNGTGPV

Binder | binding result [1] | binding result [2] | binding result [3]
B1 | binds | binds | –
B2 | – | – | binds
